Results: US20180142032A1 (Sanofi, published 2018)
Where two headings read alike, the source gives them in different places.

B1: DM4-SPDB-chMAb1 (antibody, human IgG1, kappa)
heavy: not shown
light: DIQMTQSPPSLSASLGGKVTITCKASQDIDRYMAWYQDKPGKGPRLLIHDTSTLQPGIPSRFSGSGSGRDYSFSISNLEPEDIATYYCLQYDNLWTFGGGTKLEIKRTVAAPSVFIFPPSDEQLKSGTASVVCLLNNFYPREAKVQWKVDNALQSGNSQESVTEQDSKDSTYSLSSTLTLSKADYEKHKVYACEVTHQGLSSPVTKSFNRGEC
modifications: DM4 linked through SPDB, average DAR 4.5 per antibody; sites not stated
notes: antibody drug conjugate of chMAb1; also called chMAb1-SPDB-DM4
B2: huMAb1_2 (antibody, human IgG1, kappa, V domains shown)
VH: QVQLVQSGAELVKPGASVKMSCKASGYIFTNYNIHWVKKSPGQGLEWIGAIYPGNGDAPYSQKFQDRATLTADTSSSTTYMELSSLTSEDSAVYYCVRANWDVAFAYWGQGTLVSVSS
VL: DIQMTQSPPSLSASVGGKVTITCKASQDIDRYMAWYQDKPGKGPKLLIHDTSTLQPGIPSRFSGSGSGRDYSFSISNLEPEDIATYYCLQYDNLWTFGGGTKLEIKR
notes: humanized, VH2-huIgG1 and VL2-huCk
B3: chMAb2can (antibody, human IgG1, kappa, V domains shown)
VH: QVQLQQSAAELARPGASVKMSCKASGYTFTSYTMHWVKQRPGQGLEWIGYFNPSSGYPEYNQKFKDKTTLTADKSSNTAFIQLNSLTSEDSAVYYCSRGYYYGSRGYALDFWGQGTSVTVSS
VL: NIVLTQSPASLAVSLGQRATISCRASESVDINGNTFMHWYQQKPGQSPKLLIYAASNLESGVPARFSGSGSGTDFTFTIDPVEADDVATYYCQQNIEDPWTFGGGTKLEIKR
B4: huMAb1_negB (antibody, human IgG1, kappa)
heavy: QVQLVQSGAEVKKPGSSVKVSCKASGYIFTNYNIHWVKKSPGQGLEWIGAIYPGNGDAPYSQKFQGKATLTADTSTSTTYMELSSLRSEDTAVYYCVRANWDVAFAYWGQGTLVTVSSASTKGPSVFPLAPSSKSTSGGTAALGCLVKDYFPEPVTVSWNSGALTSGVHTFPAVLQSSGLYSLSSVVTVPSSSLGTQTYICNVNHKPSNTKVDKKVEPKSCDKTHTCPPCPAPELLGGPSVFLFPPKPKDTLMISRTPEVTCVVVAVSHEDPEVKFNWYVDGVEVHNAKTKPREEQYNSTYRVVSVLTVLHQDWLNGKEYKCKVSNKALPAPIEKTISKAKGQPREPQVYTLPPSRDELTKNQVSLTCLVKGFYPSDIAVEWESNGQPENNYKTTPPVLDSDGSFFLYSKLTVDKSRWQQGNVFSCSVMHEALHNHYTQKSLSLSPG
light: DIQMTQSPSSLSASVGDRVTITCKASQDIDRYMAWYQDKPGKAPRLLIHDTSTLQSGVPSRFSGSGSGRDYTLTISNLEPEDFATYYCLQYDNLWTFGGGTKVEIKRTVAAPSVFIFPPSDEQLKSGTASVVCLLNNFYPREAKVQWKVDNALQSGNSQESVTEQDSKDSTYSLSSTLTLSKADYEKHKVYACEVTHQGLSSPVTKSFNRGEC
notes: LC1 and HCnegB (VH1-huIgG1_266A, D265A by Kabat)
B5: DM4-SPDB-huMAb1_2 (antibody, human IgG1, kappa, V domains shown)
VH: QVQLVQSGAELVKPGASVKMSCKASGYIFTNYNIHWVKKSPGQGLEWIGAIYPGNGDAPYSQKFQDRATLTADTSSSTTYMELSSLTSEDSAVYYCVRANWDVAFAYWGQGTLVSVSS
VL: DIQMTQSPPSLSASVGGKVTITCKASQDIDRYMAWYQDKPGKGPKLLIHDTSTLQPGIPSRFSGSGSGRDYSFSISNLEPEDIATYYCLQYDNLWTFGGGTKLEIKR
modifications: DM4 linked through SPDB, average DAR 4.05 per antibody; sites not stated
B6: DM4-SPDB-huMAb1_3 (antibody, human IgG1, kappa, V domains shown)
VH: QVQLVQSGAELVKPGASVKMSCKASGYIFTNYNIHWVRQAPGQGLEWIGAIYPGNGDAPYAQKFQGRATLTADTSSSTTYMELSSLTSEDTAVYYCVRANWDVAFAYWGQGTLVTVSS
VL: DIQMTQSPSSLSASVGGKVTITCKASQDIDRYMAWYQQKPGKGPKLLIHDTSTLQPGVPSRFSGSGSGRDYSLTISSLEPEDIATYYCLQYDNLWTFGGGTKLEIKR
modifications: DM4 linked through SPDB, average DAR 3.5 per antibody; sites not stated
B7: DM4-SPDB-chMAb2 (antibody, human IgG1, kappa, V domains shown)
VH: QVQLQQSAAELARPGASVKMSCKASGYTFTSYTMHWVKQRPGQGLEWIGYFNPSSGYPEYNQKFKDKTTLTADKSSNTAFIQLNSLTSEDSAVYYCSRGYYYGSRGYALDFWGQGTSVTVSS
VL: NIVLTQSPASLAVSLGQRATISCRASESVDINGNTFMHWYQQKPGQSPKLLIYAASNLESGVPARFSGSGSGTDFTFTIDPVEADDVATYYCQQNIEDPWTFGGGTKLEIKR
modifications: DM4 linked through SPDB, average DAR 3.7 per antibody; sites not stated
notes: also called DM4-SPDB-chMAb2can
B8: DM4-SPDB-chMAb3 (antibody, human IgG1, kappa, V domains shown)
VH: QIQLVQSGPELKKPGETVKISCKASGYIFTNYGMNWVKQAPGKGLKWMGWINTYTGESRYADDFKGRFALSLETSASTAYLQINNLENEDMATYFCAREDYYGNSPWFFDVWGAGTTVTVSS
VL: DIQMTQTTSSLSASLGDRVTISCRASQGINKYLNWYQQKPDGTVKLLIYYTSTLHSGVPSRFSGSGSGTDYSLTINNLEPEDIATYYCQQYTRLPFTFGSGTKLEIKR
modifications: DM4 linked through SPDB, average DAR 3.7 per antibody; sites not stated
B9: chMAb3_VLR24-R93 (antibody, human IgG1, kappa, V domains shown)
VH: QIQLVQSGPELKKPGETVKISCKASGYIFTNYGMNWVKQAPGKGLKWMGWINTYTGESRYADDFKGRFALSLETSASTAYLQINNLENEDMATYFCAREDYYGNSPWFFDVWGAGTTVTVSS
VL: DIQMTQTTSSLSASLGDRVTISCRASQGINKYLNWYQQKPDGTVKLLIYYTSTLHSGVPSRFSGSGSGTDYSLTINNLEPEDIATYYCQQYTRLPFTFGSGTKLEIKR
notes: chimeric, human IgG1, Ckappa; VL with N24R and K93R
B10: huMAb1_3 (antibody, human IgG1, kappa, V domains shown)
VH: QVQLVQSGAELVKPGASVKMSCKASGYIFTNYNIHWVRQAPGQGLEWIGAIYPGNGDAPYAQKFQGRATLTADTSSSTTYMELSSLTSEDTAVYYCVRANWDVAFAYWGQGTLVTVSS
VL: DIQMTQSPSSLSASVGGKVTITCKASQDIDRYMAWYQQKPGKGPKLLIHDTSTLQPGVPSRFSGSGSGRDYSLTISSLEPEDIATYYCLQYDNLWTFGGGTKLEIKR
notes: humanized, VH3-huIgG1 and VL3-huCk

Assays:
[1] = target: T1, cynomolgus monkey LAMP1 at the cell surface (cynomolgus monkey, UniProt P11279 29-417 (human entry)); test: flow cytometry
T1 construct: also called cynoLAMP1; cynomolgus LAMP1
T1 chain: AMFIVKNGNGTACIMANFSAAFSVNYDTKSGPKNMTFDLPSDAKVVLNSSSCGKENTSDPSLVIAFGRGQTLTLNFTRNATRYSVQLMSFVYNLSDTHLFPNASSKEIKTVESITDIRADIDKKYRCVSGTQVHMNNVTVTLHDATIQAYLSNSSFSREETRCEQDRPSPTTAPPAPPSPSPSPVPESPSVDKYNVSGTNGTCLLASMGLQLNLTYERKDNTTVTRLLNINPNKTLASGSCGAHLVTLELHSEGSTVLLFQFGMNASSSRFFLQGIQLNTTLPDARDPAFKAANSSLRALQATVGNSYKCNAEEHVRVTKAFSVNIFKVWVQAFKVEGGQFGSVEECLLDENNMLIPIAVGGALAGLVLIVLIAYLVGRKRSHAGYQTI

[2] = target: T2, human LAMP1 at the cell surface (human, UniProt P11279 29-417); test: cell-based or functional assay
T2 sequence: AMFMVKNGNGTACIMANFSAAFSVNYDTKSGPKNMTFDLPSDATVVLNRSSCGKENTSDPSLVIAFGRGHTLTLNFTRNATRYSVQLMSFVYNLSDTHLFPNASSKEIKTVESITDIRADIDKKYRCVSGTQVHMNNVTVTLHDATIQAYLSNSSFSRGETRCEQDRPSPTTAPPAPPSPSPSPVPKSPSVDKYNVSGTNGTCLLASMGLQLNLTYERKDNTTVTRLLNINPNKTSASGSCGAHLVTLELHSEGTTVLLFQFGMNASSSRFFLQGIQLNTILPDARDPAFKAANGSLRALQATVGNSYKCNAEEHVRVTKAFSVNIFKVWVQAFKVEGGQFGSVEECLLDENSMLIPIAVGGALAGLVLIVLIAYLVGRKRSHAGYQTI

[3] = target: T1, cynomolgus monkey LAMP1 at the cell …; test: flow cytometry, HEK293 cynoLAMP1 clone 44
[4] = target: T2, human LAMP1 at the cell surface; test: flow cytometry, HCT116 huLAMP1 clone 8
Description: HCT116 cells were infected by a lentiviral vector allowing stable integration of the human or the cynomolgus LAMP1 CDS in genomic DNA of cells. Individual clones with different densities of human or cynomolgus LAMP1 cell surface localization were derived from a pool of HCT116 infected cells. […] 100 μL/well of goat anti-human IgG conjugated with Alexa488 (Invitrogen; # A11013) was added for 1 h at 4° C. and washed two times with PBS 1% BSA. The antibody binding was evaluated after centrifugation and resuspension of cells in 100 μl fixing solution (paraformaldehyde at 4% in PBS). Samples were read using Galaxy® Flow Cytometry System (Partec). EC50 values were estimated using BIOST@T-SPEED software.

[5] = target: T1, cynomolgus monkey LAMP1 at the cell …; test: flow cytometry, HEK293 cynoLAMP1 clone 44
LAMP1::histag [6] = target: T3, LAMP1::histag (human, UniProt P11279 29-382); test: SPR (BIAcore 2000), mAb captured by anti-Fc, LAMP1 injected 1 to 256 nM
T3 construct: extracellular domain without signal peptide, C-terminal 6 His tag, made in HEK293 cells; also called recombinant human LAMP1; human LAMP1 (29-382)
T3 sequence: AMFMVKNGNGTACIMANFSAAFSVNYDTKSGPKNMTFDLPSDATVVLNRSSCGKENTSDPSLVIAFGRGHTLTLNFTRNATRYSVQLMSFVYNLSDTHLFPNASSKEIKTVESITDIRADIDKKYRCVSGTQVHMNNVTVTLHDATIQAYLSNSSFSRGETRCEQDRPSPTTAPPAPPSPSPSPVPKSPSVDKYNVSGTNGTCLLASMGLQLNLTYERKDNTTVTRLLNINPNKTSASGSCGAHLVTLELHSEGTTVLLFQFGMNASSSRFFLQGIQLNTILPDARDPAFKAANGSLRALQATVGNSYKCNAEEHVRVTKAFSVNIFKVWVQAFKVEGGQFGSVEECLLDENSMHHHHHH
Description: The binding kinetics of the murine, chimer or humanized anti-LAMP1 mAbs were determined by surface plasmon resonance assay using a BIAcore 2000 (BIAcore Inc., Uppsala, N.J.). […] A mouse anti-αhuman Fc IgG1 (BIAcore #BR-1008-39) and rabbit anti-αmurine Fc IgG1 (BIAcore #BR-1008-38) (50 μg/mL in […], pH5) were immobilized on the activated chips in all flow cells. The immobilization was carried out at a flow rate of 10 μL/min up to saturation. The chip was then blocked by injection of 70 μL of ethanolamine-HCl, pH 8.5, followed by one wash with 3 M MgCl₂ for anti-αhuman Fc IgG1 and one wash with 10 mM Glycine-HCl pH 1.7 for anti-αmurine Fc IgG1. To measure the binding of anti-LAMP1 mAbs to LAMP1, antibodies were used at 1-5 μg/mL in BIAcore running buffer (HBS-EP). […] Following completion of the injection phase, dissociation was monitored in a BIAcore running buffer at the same flow rate for 600 sec. […] Individual sensorgrams were analyzed using BIAevaluation software.

LAMP1::histag [7] = target: T3, LAMP1::histag; test: ELISA on secreted human LAMP1
[8] = target: T2, human LAMP1 at the cell surface; test: cell-based or functional assay; remark: listed apart in the source

| Binder | Ratio of EC50s (cynoLAMP1 against huLAMP1) [1] | EC50 [3] [nM] | EC50 [4] [nM] | cytotoxicity IC50, HCT116 huLAMP1 clone 8 [8] [nM] | further results |
| --- | --- | --- | --- | --- | --- |
| B1 | 1 | 6.6 | 6.6 | – | Cytotoxic activity IC50 (Cell Titer-Glo), HCT116-LAMP1 clone 5, antigen density 451 000 [2]: 0.2 nM; Cytotoxic activity IC50 (Cell Titer-Glo), HCT116-LAMP1 clone 8, antigen density 160 000 [2]: 0.1 nM |
| B2 | – | – | 6.6 | – | EC50 [5]: 13.3 nM |
| B3 | – | – | – | – | Kd (LAMP1::histag [6]): 68.8 nM |
| B4 | – | – | – | – | EC50 (LAMP1::histag [7]): 0.07 nM |
| B5 | – | – | – | 0.07 | – |
| B6 | – | – | – | 0.12 | – |
| B7 | 2.3 | 12.8 | 5.5 | 0.07 | – |
| B8 | 0.7 | 6.1 | 9.1 | 0.06 | – |
| B9 | – | – | – | – | Kd (LAMP1::histag [6]): 7.2 nM |
| B10 | – | – | 10.3 | – | EC50 [5]: 17.7 nM |
